For the assay, the target named is T1, Apaf-1 (human), O14727.
T1 chain: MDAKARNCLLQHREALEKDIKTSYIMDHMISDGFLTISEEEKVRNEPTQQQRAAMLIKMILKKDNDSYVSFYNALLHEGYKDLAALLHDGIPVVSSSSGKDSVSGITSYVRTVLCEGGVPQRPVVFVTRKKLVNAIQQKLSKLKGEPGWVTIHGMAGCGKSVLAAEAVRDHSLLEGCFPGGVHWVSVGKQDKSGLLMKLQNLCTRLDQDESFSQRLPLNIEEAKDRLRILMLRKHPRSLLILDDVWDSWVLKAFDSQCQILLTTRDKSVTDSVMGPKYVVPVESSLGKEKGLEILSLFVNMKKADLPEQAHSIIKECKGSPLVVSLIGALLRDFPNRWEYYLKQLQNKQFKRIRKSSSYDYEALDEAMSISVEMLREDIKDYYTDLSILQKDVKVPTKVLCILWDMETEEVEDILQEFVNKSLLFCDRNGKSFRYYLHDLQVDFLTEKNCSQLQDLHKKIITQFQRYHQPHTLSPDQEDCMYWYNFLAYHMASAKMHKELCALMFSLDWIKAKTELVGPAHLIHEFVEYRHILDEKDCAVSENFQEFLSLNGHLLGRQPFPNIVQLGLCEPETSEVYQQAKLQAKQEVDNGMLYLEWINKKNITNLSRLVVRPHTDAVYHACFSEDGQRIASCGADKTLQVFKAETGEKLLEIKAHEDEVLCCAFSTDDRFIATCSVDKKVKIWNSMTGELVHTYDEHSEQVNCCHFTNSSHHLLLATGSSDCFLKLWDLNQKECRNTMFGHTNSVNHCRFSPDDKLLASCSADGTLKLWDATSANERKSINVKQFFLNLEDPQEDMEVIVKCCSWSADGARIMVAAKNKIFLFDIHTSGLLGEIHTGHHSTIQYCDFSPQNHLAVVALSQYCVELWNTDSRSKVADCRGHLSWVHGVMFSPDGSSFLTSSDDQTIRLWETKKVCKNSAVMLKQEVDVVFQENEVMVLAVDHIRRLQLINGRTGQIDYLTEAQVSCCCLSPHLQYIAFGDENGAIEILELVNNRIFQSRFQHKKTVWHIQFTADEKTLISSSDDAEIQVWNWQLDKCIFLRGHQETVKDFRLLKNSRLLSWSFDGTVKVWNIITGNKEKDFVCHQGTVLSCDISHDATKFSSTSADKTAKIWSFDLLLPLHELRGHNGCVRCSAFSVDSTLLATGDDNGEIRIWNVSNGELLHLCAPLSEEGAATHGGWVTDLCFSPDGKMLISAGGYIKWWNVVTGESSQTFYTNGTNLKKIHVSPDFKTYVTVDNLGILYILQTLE
In words: cryo-EM structure. To be noted: remark: other sources report otherwise.

B1: Apaf-1, O14727 1-1248 (natural protein)
chain: MDAKARNCLLQHREALEKDIKTSYIMDHMISDGFLTISEEEKVRNEPTQQQRAAMLIKMILKKDNDSYVSFYNALLHEGYKDLAALLHDGIPVVSSSSGKDSVSGITSYVRTVLCEGGVPQRPVVFVTRKKLVNAIQQKLSKLKGEPGWVTIHGMAGCGKSVLAAEAVRDHSLLEGCFPGGVHWVSVGKQDKSGLLMKLQNLCTRLDQDESFSQRLPLNIEEAKDRLRILMLRKHPRSLLILDDVWDSWVLKAFDSQCQILLTTRDKSVTDSVMGPKYVVPVESSLGKEKGLEILSLFVNMKKADLPEQAHSIIKECKGSPLVVSLIGALLRDFPNRWEYYLKQLQNKQFKRIRKSSSYDYEALDEAMSISVEMLREDIKDYYTDLSILQKDVKVPTKVLCILWDMETEEVEDILQEFVNKSLLFCDRNGKSFRYYLHDLQVDFLTEKNCSQLQDLHKKIITQFQRYHQPHTLSPDQEDCMYWYNFLAYHMASAKMHKELCALMFSLDWIKAKTELVGPAHLIHEFVEYRHILDEKDCAVSENFQEFLSLNGHLLGRQPFPNIVQLGLCEPETSEVYQQAKLQAKQEVDNGMLYLEWINKKNITNLSRLVVRPHTDAVYHACFSEDGQRIASCGADKTLQVFKAETGEKLLEIKAHEDEVLCCAFSTDDRFIATCSVDKKVKIWNSMTGELVHTYDEHSEQVNCCHFTNSSHHLLLATGSSDCFLKLWDLNQKECRNTMFGHTNSVNHCRFSPDDKLLASCSADGTLKLWDATSANERKSINVKQFFLNLEDPQEDMEVIVKCCSWSADGARIMVAAKNKIFLFDIHTSGLLGEIHTGHHSTIQYCDFSPQNHLAVVALSQYCVELWNTDSRSKVADCRGHLSWVHGVMFSPDGSSFLTSSDDQTIRLWETKKVCKNSAVMLKQEVDVVFQENEVMVLAVDHIRRLQLINGRTGQIDYLTEAQVSCCCLSPHLQYIAFGDENGAIEILELVNNRIFQSRFQHKKTVWHIQFTADEKTLISSSDDAEIQVWNWQLDKCIFLRGHQETVKDFRLLKNSRLLSWSFDGTVKVWNIITGNKEKDFVCHQGTVLSCDISHDATKFSSTSADKTAKIWSFDLLLPLHELRGHNGCVRCSAFSVDSTLLATGDDNGEIRIWNVSNGELLHLCAPLSEEGAATHGGWVTDLCFSPDGKMLISAGGYIKWWNVVTGESSQTFYTNGTNLKKIHVSPDFKTYVTVDNLGILYILQTLE
A word on the stoichiometry N: it is the number of molecules, sites or subunits per partner or assembly. B1 registered a stoichiometry N of 7.

The values are drawn from publication PMC2874686.
